This is an account of results in patent US20240254204A1.

Test [1] addresses SARS-CoV-1 RBD (SARS-CoV). In words: sVNT, cPass kit format with SARS-CoV-1 RBD-HRP; HEK293 supernatant.
The target of test [2] is SARS-CoV-1 RBD (SARS-CoV). In words: ELISA, 100 ng coated RBD, neat supernatant, anti-human IgG-HRP.
Test [3] concerns the target SARS-CoV-2 RBD (SARS-CoV-2). Described as above.
For test [4], the target named is SARS-CoV-2 RBD (SARS-CoV-2). Kind of test: sVNT, cPass kit with SARS-CoV-2 RBD-HRP; HEK293 supernatant.

B1: Antibody 14 (SS6V14-F2) (antibody, V domains shown)
VH: QVQLQESGPGLVKPSETLSLTCTVSGGPISSYYWTWIRQPPGKGLEWIGYIYYSGSTNYSPSLKSRVTMSLETSKNQFSLKLTSVTAADTAVYYCARDPLAEGAASSGFDNWGQGTLVTVSS
VL: DIQMTQSPSSLSASVGDRVTITCRASQSISSYLNWYQQKPGKAPKLLIYAASALQSGVPSRFSGSGSGTHFSLTINGLQPEDFATYSCQQSYTTPRTFGPGTKVEIK
Regarding B1, in test [1], the sVNT SARS-CoV-1 (% I) was determined as 18.1%. This molecule showed a Binding SARS-CoV-1 in test [2] of 1.06. For the same molecule, the Binding SARS-CoV-2 in test [3] is 1.54. Moreover, the sVNT SARS-CoV-2 (% I) in test [4] was found to be 33.4%.

B2: Antibody 9 (SS6V9-D11) (antibody, V domains shown)
VH: QVQLQESGPGLVKPSGTLSLTCAVSGGSISSNIWWSWVRQPPGKGLEWIGDIYHSGSTNYNPSLEGRVTISIDKSKNQFSLRLTSLTAADTAVYYCARAISQQYFDSSVLGYWGQGILVTVSS
VL: EIVMTQSPATLSVSPGERVTLSCRASQSVVTNLAWYQQKPGQAPRLLIYGASTRATGIPARFSGSGSGTEFTLTISSLQSEDFAIYHCQQYNNWPGYTFGQGTKVDIK
As to B2, the sVNT SARS-CoV-1 (% I) in test [1] was 45.2%. In addition, the Binding SARS-CoV-1 in test [2] was 1.29. The molecule also displayed a Binding SARS-CoV-2 in test [3] of 1.81. Further, the sVNT SARS-CoV-2 (% I) in test [4] was determined as 39.2%.

B3: Antibody 8 (SS6V8-D3) (antibody, V domains shown)
VH: EVQLVESGGDLVQPGGSLRLSCSASGFTFSTYAMHWVRQAPGKGLDYVASIASDGGITTYADSVKGRFTISRDNSKNALYLQMSSLRVEDTAVYYCVKDSLTSVTTIFDCWGQGTLVTVSS
VL: DIQMTQSPSSLSASVGDSVTITCRASQNINSYLHWYQQKPGKAPKLLIYTASSLQSGVPSRFSASGSGTHFTLTISSLQPEDFATYYCQQSYTDPYTFGQGSKVEIK
B3 registered a sVNT SARS-CoV-1 (% I) in test [1] of 36.1%. In test [2], this molecule registered a Binding SARS-CoV-1 of 1.42. In addition, the Binding SARS-CoV-2 in test [3] stood at 1.94. The molecule also showed a sVNT SARS-CoV-2 (% I) in test [4] of 33.1%.

B4: Antibody 7 (SS6V7-C5) (antibody, V domains shown)
VH: EVQLVQSGAEVKKPGESLKISCKGSENIFSGYWIGWVRQMPGKGLEWMGIIYPDDSDTRYNPSFQGQVTISADQSISTAYLQWSRLKASDTAMYYCARHLGGGSSWPIDYWGQGTLVTVSS
VL: DIQMTQSPSSLSASVGDRVTITCRANQGISNYLAWFQQKPGKAPKSLIYAASSLQSGVPSKFSGNRSGTDFTLTISSLQPEDFATYYCQQYSSYPFTFGGGTKVEIK
For B4, the sVNT SARS-CoV-1 (% I) in test [1] is 20.8%. The molecule further registered a Binding SARS-CoV-1 in test [2] of 0.972. Also, in test [3], the Binding SARS-CoV-2 was determined as 1.16. Moreover, the sVNT SARS-CoV-2 (% I) in test [4] amounted to 14.9%.

B5: Antibody 10 (SS6V10-E1) (antibody, V domains shown)
VH: EVQLVQSGAEVKKPGESLKISCQGSEDSFTGYWIGWVRQLPGKGLEWMGFIYPDDGDTRYSPAFQGLVTFSADKSITTAYLQWSSLKASDTAIYFCARHLGGGSSWPIDSWGQGTQVTVSS
VL: DIQMTQSPSSLSASVGDRVTITCRASQGIRNYLAWFQQKPGKAPKSLIYAASSLQSGVPSKFSGSGYGTDFTLTINSLQPEDFATYYCQQYNNHPFTFGGGTKVEIK
For the molecule B5, in test [1], the sVNT SARS-CoV-1 (% I) stood at 15.4%. In addition, the Binding SARS-CoV-1 in test [2] came to 1.1. In test [3], this molecule gave a Binding SARS-CoV-2 of 1.31. In test [4], the sVNT SARS-CoV-2 (% I) was found to be 22.7%.

B6: Antibody 12 (SS6V12-E11) (antibody, V domains shown)
VH: EVQLVESGGGLVKPGGSLRLSCAASGFTFSTYNMNWVRQAPGKGLEWVSSISSSSSFMFYADSVKGRFTISRDNANNSLYLQMNSLRAEDTAVYYCARDYYDNSGYYYYGMDVWGQGTTVTVSS
VL: DIQMTQSPSSLSASVGDRVTITCRASQSIRTYLSWYQQKPGKAPELLIYAASNLQSGVPSRFSGSGSGTDFTLTISSLQPEDFATYYCLQTYSTPQITFGQGTRLEIE
For B6, the sVNT SARS-CoV-1 (% I) in test [1] is 50.4%. In addition, the Binding SARS-CoV-1 in test [2] worked out at 1.21. The molecule also had a Binding SARS-CoV-2 in test [3] of 1.45. Further, in test [4], the sVNT SARS-CoV-2 (% I) worked out at 45%.

B7: Antibody 1 (SS6V1-B5) (antibody, V domains shown)
VH: EVQLVESGGGLVQPGGSLRLSCAASGFILRNYEMQWVRQAPGKGLEWVSVIGNTGGTFYAGSVKGRFTISRENAKNSLYLQMNSLRAEDTALYYCARVTYTSSPLPFWFLDLWGRGTLVTVSS
VL: DIQMTQSPSSLSASVGDRVTITCRASQSIGNYLNWYQQKSGKAPKILIYAASSLQSGVPSRFSGSGSGTDFTLTISSLQPEDFATYYCQQTYRTPPEDSFGQGTKVEIK
As to B7, the sVNT SARS-CoV-1 (% I) in test [1] stood at 52.1%. In test [2], this molecule came in with a Binding SARS-CoV-1 of 1.35. Moreover, in test [3], the Binding SARS-CoV-2 is 1.73. In test [4], this molecule displayed a sVNT SARS-CoV-2 (% I) of 46.3%.

B8: Antibody 18 (SS6V18-E3) (antibody, V domains shown)
VH: EVQLVESGGGLVQPGGSLRLSCAASGFTFSSYAMHWVRQVPGKGLEYVSSITSNGGGTFYADSVKGRFTISRDNSKNTVYLQMGSLSTEDMALYYCAREGIQGWVTYFDYWGRGILVTVSS
VL: DIQMTQSPSSLSASIGDRVTITCRASQSISTNLNWYQQKPGKAPKLLIYAASSLPSGVPSRFSGSGSGTDFTLTISSLQPEDFANYLCQQTYTTPQYSFGQGTKVEIK
With B8, the sVNT SARS-CoV-1 (% I) in test [1] stood at 43.7%. The Binding SARS-CoV-1 in test [2] was 1.33. In addition, the Binding SARS-CoV-2 in test [3] stood at 1.11. In addition, the sVNT SARS-CoV-2 (% I) in test [4] was 15.5%.

B9: Antibody 2 (SS6V2-G1) (antibody, V domains shown)
VH: EVQLVESGGGLVQPGGSLRLSCAASGFTVSSNYMSWVRQAPGKGLEWVSVIYSGGSTFYADSVKGRFTISRDNSKNTLYLQMNSLRAEDTAVYYCARELRHYFDYWGQGTLVTVSS
VL: DIQLTQSPSFLSASVGDRVTITCRASQGISSYLAWYQQKPGKAPKLLIYAASTLQSGVPSRFSGSGSGTEFTLTISSLQPEDFATYYCQQLNSYPPYSFGQGTKVEIK
Take B9: in test [1], the sVNT SARS-CoV-1 (% I) was determined as 1.35%. This molecule returned a Binding SARS-CoV-1 in test [2] of 0.008. In test [3], this molecule registered a Binding SARS-CoV-2 of 0.947. The molecule also yielded a sVNT SARS-CoV-2 (% I) in test [4] of 20.2%.

B10: Antibody 5 (SS6V5-C3) (antibody, V domains shown)
VH: EVQLVQSGAEVRKPGESLKISCKTSGYTFTHYWIGWVRQLPGKGLEWMGIIYPDDSDTKYSPSFQGQITISADKSISTAYLQWNSLKASDTAMYFCATADIVVGSNFFDHWGQGTLVTVSS
VL: DIQMTQSPSTLSASVGDRVTITCRASQSISTWLAWYQQKPGKPPKVLIYKASILESGVSSRFSGSGSGTEFTLTISSLQPDDFATYYCQHYNSYIKTFGQGTKVEIK
Molecule B10 had a sVNT SARS-CoV-1 (% I) in test [1] of 11.7%. In test [2], this molecule came in with a Binding SARS-CoV-1 of 1.16. The molecule also showed a Binding SARS-CoV-2 in test [3] of 1.68. For the same molecule, in test [4], the sVNT SARS-CoV-2 (% I) came out at 32.3%.

B11: Antibody 6 (SS6V6-C4) (antibody, V domains shown)
VH: EVQLVESGGGLVQPGGSLRLSCSASGFTFNTYAMHWVRQAPGKGPEYVSGISSNGGITDYADSVKGRFTISRDNSKNTLYLQMSSLRPEDTAVYYCVKDSLATVVTLLSYWGQGTLVTVSS
VL: DIQMTQSPSSLSASVGDRVTITCRASQTISSYLNWFQQKPGKAPKLLIYAASSLQSGVPSRFSGSGSGTDFTLTISSLQPEDFAIYYCQQSYSTPGTFGQGTKVEIK
For the molecule B11, the sVNT SARS-CoV-1 (% I) in test [1] came to 30.5%. This molecule also returned a Binding SARS-CoV-1 in test [2] of 1.29. The Binding SARS-CoV-2 in test [3] turned out to be 1.92. The sVNT SARS-CoV-2 (% I) in test [4] amounted to 31.7%.

B12: Antibody 15 (SS6V15-F6) (antibody, V domains shown)
VH: EVQLVESGGGVVQPGRSLRLSCAASGFTFSSYAIHWVRQAPGKALEWVALISYDGRTKYYADSVKGRFTISRDNSKNTLYLQMNSLRAEDTAVYYCARLDIIITPPANDYWGQGTLVTVSS
VL: EIVLTQSPGTLSLSPGDRATVSCRASQIVSSNYLAWYQQKPGQVPRLLIYDASSRATGIPDRFSGSGSGTDFTLTISRLEPEDFAVYYCHQYGDSRRTFGQGTKVDIK
Take B12: the sVNT SARS-CoV-1 (% I) in test [1] stood at 17.5%. Moreover, the Binding SARS-CoV-1 in test [2] amounted to 0.831. Further, the Binding SARS-CoV-2 in test [3] came to 0.674. This molecule also displayed a sVNT SARS-CoV-2 (% I) in test [4] of 15.7%.

B13: Antibody 19 (SS6V19-F4) (antibody, V domains shown)
VH: EVQLVQSGSELKKPGASVKVSCKVSGYTFTDYNMNWVRQAPGQGLEWMGWINTNTGIPTYAQGFTGRFVFSLDTSVSTAYLQISSLKAEDTAIYYCARDGGWQLPYWYFDLWGRGTLVTVSS
VL: EIVMTQSPATLSVSPGERVTLSCRASYSFSSSLAWYQQKPGQAPRLLIYGTSTRATGVPVRFSGSGSGTEFTLTISSLQSEDLAVYYCQQYYSWPLTFGQGTKVDIK
Molecule B13 displayed a sVNT SARS-CoV-1 (% I) in test [1] of 61.2%. The molecule also gave a Binding SARS-CoV-1 in test [2] of 1.15. In addition, the Binding SARS-CoV-2 in test [3] was 0.641. Also, in test [4], the sVNT SARS-CoV-2 (% I) is 38.8%.
